In paper PMC6695498 (2019):

Tests used:
[1] = target: SUMO1-capped SUMO2 chain (linear dimer/trimer) (Homo sapiens, UniProt P63165); assay: ITC
[2] = target: SUMO2 chain (linear dimer/trimer) (Homo sapiens, UniProt P61956); assay: ITC
Sequence of SUMO2 chain (linear dimer/trimer) (P61956 1-93): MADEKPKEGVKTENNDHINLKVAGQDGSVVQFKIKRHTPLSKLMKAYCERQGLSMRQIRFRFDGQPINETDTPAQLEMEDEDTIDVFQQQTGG

Sequence of SUMO1-capped SUMO2 chain (linear dimer/trimer) (P63165 2-97, chain 1 of 2): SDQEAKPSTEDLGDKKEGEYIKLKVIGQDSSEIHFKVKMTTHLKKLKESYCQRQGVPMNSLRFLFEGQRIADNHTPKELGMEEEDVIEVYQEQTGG
Sequence of SUMO1-capped SUMO2 chain (linear dimer/trimer) (chain, as listed by the source, chain 2 of 2): as the sequence (P61956 1-93) above

B1: Arkadia SUMO-binding domain (protein)
chain: VLARRKYALLPSSSSSSENDLSSESSSSSSTEGEEDLFVSASENHQNNPAVPSGSIDEDVVVIEASSTPQVTANEEINVTSTDSEVEIVTVGESYRSRSTLGHSRSHWSQGSSSHASRPQEPRNRSRISTVIQPLRQNAAEVVDLTVDEDEPTVVPTTSARMES
Kd [1]: ~2.5 µM | Kd [2]: ~13.5 µM
